The record followed here is US20230090014A1 (NANJING SANHOME PHARMACEUTICAL, published 2023).

Test [1] deals with T1, Human CD47-His protein (human, UniProt Q08722 19-136). Description: competition ELISA on coated CD47-His; blocked ligand SIRPα-biotin (2 µg/mL), SA-HRP, OD450. (In general: In an ELISA, binding on a coated surface is turned into a signal by an enzyme label.)
The target in test [2] is T1, Human CD47-His protein. Description: ELISA on coated human CD47-His, HRP anti-human IgG, OD450.
The target in test [3] is T1, Human CD47-His protein. Nature of the test: ELISA on coated human CD47-His, anti-human IgG HRP, OD450.
For test [4], the target named is T2, hCD47 on the surface of Raji-hPD-L1 cells (human, UniProt Q08722 19-323).
T2 construct: whole, on cells
Nature of the test: FACS on Raji-hPD-L1 cells (carry both hPD-L1 and hCD47), PE anti-human IgG Fc.

Test [5] concerns the target T3, CD47 on the surface of CHO-K1-E5 cells (human, UniProt Q08722 19-323).
T3 construct: Full length CD47 expressed from pTargeT-CD47 in CHO-K1 cells; also called CD47 on cell surface; CHO-K1-hCD47
Description: cell based ELISA on fixed CHO-K1-E5 cells, anti-human IgG HRP, OD450.

For test [6], the target named is T4, CD47(19-136)-hFc (human, biotin-labelled in the Octet assay of Example 8 (sites not given)).
T4 construct: tied by name; also called CD47-hFc; CD47-hFc-Biotin
Nature of the test: BLI (Fortebio Octet RED96), biotinylated CD47-hFc on SA sensor, antibody in solution.

The target of test [7] is T3, CD47 on the surface of CHO-K1-E5 cells. Description: FACS on CHO-K1-hCD47 cells, PE anti-human IgG.
Test [8] has the same target. Description: FACS blocking assay on CHO-K1-E5 cells; blocked ligand SIRPα-Biotin, PE streptavidin.
The target of test [9] is T5, Cynomolgus CD47-His (cynomolgus, UniProt A0A2K5X523 19-139).
T5 construct: Bought protein; also called monkey CD47
Nature of the test: ELISA on coated cynomolgus CD47-His, anti-human IgG HRP, OD450.

Test [10] addresses T2, hCD47 on the surface of Raji-hPD-L1 …. Description: FACS on Raji-hPD-L1 cells (carry both hPD-L1 and hCD47), PE anti-human IgG Fc. This is another data set of the same source.
In test [11] the target is T3, CD47 on the surface of CHO-K1-E5 cells. Nature of the test: FACS blocking assay on CHO-K1-hCD47 cells; blocked ligand SIRPα-biotin, PE-SA.

Like-named read-outs stand apart in the source and are kept apart here.

T4 sequence (chain, as listed by the source limits assumed): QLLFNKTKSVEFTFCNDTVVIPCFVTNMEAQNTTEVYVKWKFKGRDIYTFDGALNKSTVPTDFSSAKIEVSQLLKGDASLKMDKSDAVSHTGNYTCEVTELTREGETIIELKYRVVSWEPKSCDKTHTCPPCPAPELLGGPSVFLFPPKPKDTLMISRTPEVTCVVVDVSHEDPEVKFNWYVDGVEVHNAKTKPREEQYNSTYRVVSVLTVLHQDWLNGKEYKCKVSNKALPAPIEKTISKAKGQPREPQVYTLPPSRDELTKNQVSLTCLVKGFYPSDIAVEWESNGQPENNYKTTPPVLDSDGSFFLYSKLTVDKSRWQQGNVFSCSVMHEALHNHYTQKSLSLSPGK

B1: Hu34-39-PE (antibody, IgG4, V domains shown)
VH: QVQLQESGPGLVKPSQTLSLTCKASGYTFTNYWITWVKQRPGQGLEWIGDITPGRGETNYNQKFKGRVTLTVDISASTAYMELSSLRSEDTAVYYCSRWGLRRGDYWGQGTSVTVSS
VL: EIVLTQSPGTLSLSPGERATLSCRASSSVSSSYLNWYQQKSGASPKLWIYSTSNLASGVPGRFSGSGSGTSYSLTISSVEAEDAATYYCQQYSGYPLTFGAGTKLEVK
notes: also called humanized anti-CD47 antibody Hu34-39-PE
In general, EC50 (read off the curve) refers to the midpoint of the concentration-response curve. High values mean lower potency in that assay, low ones higher potency in that assay. The Kd is the equilibrium constant for the complex coming apart. Read a high Kd as a looser complex. As a reminder, the koff is the rate constant with which the complex falls apart. Read a low koff as a long-lived complex. What is called kon is the rate constant with which the complex forms. On to B1, for which the “IC50 (read off the curve)” value in test [1] was approximately 100 nM; in test [8], approximately 1 nM; in test [11], approximately 2 nM. In addition, the “EC50 (read off the curve)” value in [2] was approximately 60 nM; in test [3], approximately 0.08 nM; in [4], approximately 0.2 nM; in test [5] it was approximately 0.1 nM; in test [7], approximately 1 nM; in [9], approximately 0.1 nM. Also, in test [10], the “EC50 (read off the curve)” value is approximately 0.1 nM. In [6], this molecule yielded a Kd of 0.113 nM. The same molecule yielded a koff in test [6] of 0.000758 s⁻¹. The on-rate constant (kon) in [6] was 6.69e+06 M⁻¹ s⁻¹.
